Tests used:
[1] = target: T1, von Willebrand factor (VWF) (Homo sapiens, UniProt P04275 P04275:764-2813); test: filter; NB; 2 mM CaCl2, 37 C; details: Haematologic Technologies Inc, label: 5'-32P
Method: (§1) Affinity constants (Kd values) were determined using double-filter nitrocellulose filter binding assays (Rusconi et al, Thromb. Haemost. $4:841-848 (2000)). All binding studies were performed in binding buffer F (20 mM HEPES, pH 7.4, 150 mM NaCl, 2 mM CaCl₂, and 0.01% BSA) at 37° C. Human purified VWF (factor VIII free) was purchased from Haematologic Technologies Inc. (Essex Junction, Vt.) and used in the double-filter nitrocellulose filter binding assay to determine the Kd of the aptamers. Briefly, RNA were end-labeled at the 5′ end with T4 polynucleotide kinase (New England Biolabs, Beverly, Mass.) and [γ³²P] ATP (Amersham Pharmacia Biotech, Piscataway, N.J.) (Fitzwater and Polisky, Methods Enzymol. 267:275-301 (1996)). End-labeled RNA was diluted in binding buffer F, heat denatured at 65° C. for 5 minutes, and subsequently equilibrated at 37° C. Direct binding was performed by incubating trace ³²P-RNA with varying concentrations of VWF protein in binding buffer F at 37° C. for 5 min. The fraction of the nucleic acid-protein complex which bound to the nitrocellulose membrane was quantified with a phosphorimager (Molecular Dynamics, Sunnyvale, Calif.). Non-specific binding of the radiolabeled nucleic acid was subtracted out of the binding such that only specific binding remained (Wong and Lohman, Proc. Natl. Acad. Sci. USA 90:5428-5432 (1993)).

[2] = target: T1, von Willebrand factor (VWF); test: filter; Bmax 61%; 2 mM CaCl2, 37 C; details: tags: factor VIII free, Haematologic Technologies Inc; label: 5'-32P
Method: as §1

[3] = target: T1, von Willebrand factor (VWF); test: filter; Bmax 85%; 2 mM CaCl2, 37 C; details: Haematologic Technologies Inc, label: 5'-32P
Method: as §1

[4] = target: T1, von Willebrand factor (VWF); test: filter; Bmax 76%; 2 mM CaCl2, 37 C; details: Haematologic Technologies Inc, label: 5'-32P
Method: as §1

[5] = target: T1, von Willebrand factor (VWF); test: filter; Bmax 77%; 2 mM CaCl2, 37 C; details: Haematologic Technologies Inc, label: 5'-32P
Method: as §1

[6] = target: T1, von Willebrand factor (VWF); test: filter; NB; loop CAGA mutated; 2 mM CaCl2, 37 C; details: tags: factor VIII free, Haematologic Technologies Inc; label: 5'-32P
Method: as §1

[7] = tags: factor VIII free human purified VWF

## GGGAGGUGGACGAACUGCCCUACGCACAGACGACUCGCUG (ssRNA, 2'-F C and U; 2'-OH A and G) [T17]
[1]; tags: factor VIII free
  binding result: no binding

## ACGAACUGCCCUCGAUCGACGCACAGACGUUUUUU (ssRNA, mAmCmGmAmAmCmUmGfCfCfCmUmCmGmAmUmCmGmAfCfGfCmAmCmAmGmAmCmGfUmUmUmUmUmU-idT) [T79 vrt6]
[2]
  Kd: 60.5 nM

## ACGAACUGCCCUCGUAUUAUUUCGACGCACAGACGU (ssRNA, 2'-F C9,C10,C11,C26,C28; ribo G27; rest 2'-OMe; 3' idT) [T89 vrt4]
[3]; [7]
  Kd: 8.4 nM

B1: T20 (ssRNA)
RNA: GGGAGGUGGACGAACUGCCCUCUACUUUCAUGUUGACGCACAGACGACUCGCUG
modifications: 2'-F C and U; 2'-OH A and G
[1]; tags: factor VIII free
  binding result: no binding

## ACGAACUGCCCUCAGCUACUUUCAUGUUGCUGACGCACAACGU (ssRNA, 2'-F C and U; 2'-OH A and G; 3' idT) [T53]
[1]; tags: factor VIII free
  binding result: no binding

## ACGAACUGCCCUCAGCUACUUUCAUGUUGCUGACGCACGACGU (ssRNA, 2'-F C and U; 2'-OH A and G; 3' idT) [T54]
[1]; tags: factor VIII free
  binding result: no binding

## GGGAGGUCAGCUACUUUCAUGUUGCUGA (ssRNA, 2'-F C and U; 2'-OH A and G) [T14]
[1]; tags: factor VIII free
  binding result: no binding

## ACGAACUGCCCUCGAUCGACGCACAGACGU (ssRNA, rAfCrGmAmAmCfUrGfCfCfCfUmCmGmAmUmCmGrAfCrGfCrAmCmAmGmAfCrGfU-idT) [T59 vrt1]
[4]; tags: factor VIII free
  Kd: 1.5 nM

## ACGAACUGCCCUCGUUAUCGACGCACAGACGU (ssRNA, 2'-F C and U; 2'-OH A and G; 3' idT) [T71]
[5]; tags: factor VIII free
  Kd: 10 nM

B2: T87 vrt1 (ssRNA)
RNA: ACGAACUGCCCUCUUUCAUGACGCACAGACGU
modifications: 2'-F C2,U7,C9,C10,C11,U12,C22,C24,C30,U32; ribo A1,G3,G8,A21,G23,A25,G31; rest 2'-OMe; 3' idT
[3]; [7]
  Kd: 1.5 nM

B3: T13 (ssRNA)
RNA: GGGAGGUGCCCUCAGCUACUUUCAUGUUGCUGACGCACAGACGACUCGCUG
modifications: 2'-F C and U; 2'-OH A and G
[1]; tags: factor VIII free
  binding result: no binding

## ACGAACUGCCCUCGAUUAUUCGACCACAGACGU (ssRNA, 2'-F C and U; 2'-OH A and G; 3' idT) [T67]
[1]; tags: factor VIII free
  binding result: no binding

## ACGAACUGCCCUCGAUCGACGCACAGACGU (ssRNA, 2'-F C10,C11,C20,C22,U30; ribo G21; rest 2'-OMe; 3' idT) [T59 vrt29]
[4]; [7]
  Kd: 19 nM

## ACGACUGCCCUCAGCUACUUUCAUGUUGCUGACGCACACGU (ssRNA, 2'-F C and U; 2'-OH A and G; 3' idT) [T55]
[1]; tags: factor VIII free
  binding result: no binding

## ACGAACUGCCCUCGAUCGACGCACAGACGUAAA (ssRNA, 2'-F C and U; 2'-OH A and G; 3' idT) [T80]
[5]; tags: factor VIII free
  Kd: 6.3 nM

## ACGAACUGCCCUUUAUACGCACAGACGU (ssRNA, 2'-F C and U; 2'-OH A and G; 3' idT) [T65]
[1]; tags: factor VIII free
  binding result: no binding

## ACGAACUGCCCUCUAUUUCAUUUGACGCACAGACGU (ssRNA, 2'-F C and U; 2'-OH A and G; 3' idT) [T93]
[4]; tags: factor VIII free
  Kd: 6.4 nM

## ACGAACUGCCCUCUAUUUCAUUUGACGCACAGACGU (ssRNA, 2'-F C9,C10,C11,C26,G27,C28; rest 2'-OMe; 3' idT) [T93 vrt7]
[4]; [7]
  Kd: 20 nM

## ACGAACUGCCCUCGAUCGACGCACAGACGU (ssRNA, rAfCrGmAmAmCfUrGfCfCfCfUmCmGmAmUmCmGrAfCrGfCmAmCmAmGmAfCrGfU-idT) [T59 vrt12]
[3]; tags: factor VIII free
  Kd: 6.9 nM

## ACGAACUGCCCUCUUUUUUUUGACGCACCCCCGU (ssRNA, 2'-F C and U; 2'-OH A and G; 3' idT) [T96]
[6]
  binding result: no binding

## ACGAACUGCCCUCGUUUCAUCGACGCACCCCCGU (ssRNA, 2'-F C and U; 2'-OH A and G; 3' idT) [T97]
[6]
  binding result: no binding

## ACGAACUGCCCUCGAUCGACGCACAGACGU (ssRNA, rAfCrGmAmAmCfUrGfCfCfCfUmCmGmAmUmCmGrAfCmGfCrAmCmAmGmAfCrGfU-idT) [T59 vrt13]
[4]; tags: factor VIII free
  Kd: 29 nM

## ACGAACUGCCCUCGCACUUAUGUGCGACGCACAGACGU (ssRNA, 2'-F C and U; 2'-OH A and G; 3' idT) [T50]
[2]
  Kd: 9.6 nM

## ACGAACUGCCCUCGUUUCAUCGACGCACAGACGU (ssRNA, 2'-F C9,C10,C11,C24,G25,C26,U34; rest 2'-OMe; 3' idT) [T86 vrt6]
[3]; [7]
  Kd: 52 nM

## ACGAACUGCCCUCGAUCGACGCACAGACGU (ssRNA, 2'-F U7,C9,C10,C11,U12,C20,C22,U30; ribo A23; rest 2'-OMe; 3' idT) [T59 vrt21]
[3]; [7]
  Kd: 27 nM

## ACGAACUGCCCUACGCACAGACGU (ssRNA, 2'-F C and U; 2'-OH A and G; 3' idT) [T56]
[1]; tags: factor VIII free
  binding result: no binding

## ACGAACUGCCCUCGCGACGCACAGACGU (ssRNA, 2'-F C and U; 2'-OH A and G; 3' idT) [T58]
[1]; tags: factor VIII free
  binding result: no binding

## ACGAACUGCUCGAUUAUUCGAGCACAGACGU (ssRNA, 2'-F C and U; 2'-OH A and G; 3' idT) [T66]
[1]; tags: factor VIII free
  binding result: no binding

## ACGAACUCCCUCGAUUAUUCGACGACAGACGU (ssRNA, 2'-F C and U; 2'-OH A and G; 3' idT) [T62]
[1]; tags: factor VIII free
  binding result: no binding

## ACGAACUGCCCUCGAUCGACGCACAGACGU (ssRNA, 2'-F U7,C9,C10,C11,U12,C20,C22,U30; ribo G21; rest 2'-OMe; 3' idT) [T59 vrt23]
[5]; [7]
  Kd: 1.7 nM

## ACGAACUGCCCCGCACAGACGU (ssRNA, 2'-F C and U; 2'-OH A and G; 3' idT) [T61]
[1]; tags: factor VIII free
  binding result: no binding

## ACGAAAUGGAAUCGUAAGAACCACAGACGUUUUUU (ssRNA, all 2'-OMe; 3' idT) [DTRI-022]
[1]; [7]
  binding result: no binding

## ACGAACUGCCCUCGCUACUUUCAUGUUGCGACGCACAGACGU (ssRNA, 2'-F C and U; 2'-OH A and G; 3' idT) [T34]
[2]
  Kd: 10 nM

## ACGAACUGCCCUCUAUUAUUUGACGCACAGACGU (ssRNA, 2'-F C and U; 2'-OH A and G; 3' idT) [T90]
[5]; tags: factor VIII free
  Kd: 3.8 nM

## ACGAACUGCCCUCUAUUAUUUGACGCACAGACGU (ssRNA, 2'-F C9,C10,C11,C24,C26; ribo G25; rest 2'-OMe; 3' idT) [T90 vrt4]
[3]; [7]
  Kd: 10.2 nM

B4: T19 (ssRNA)
RNA: GGGAGGUGGACGAACUGCCCUCUUUCAUGUUGCUGACGCACAGACGACUCGCUG
modifications: 2'-F C and U; 2'-OH A and G
[1]; tags: factor VIII free
  binding result: no binding

## ACGAACUGCCCUCGAUCGACGCACAGACGUACCCG (ssRNA, 2'-F C and U; 2'-OH A and G; 3' idT) [T82]
[4]; tags: factor VIII free
  Kd: 5.3 nM

## ACGAACUGCCCUCGAUCGACGCACAGACGUAAAAA (ssRNA, 2'-F C and U; 2'-OH A and G; 3' idT) [T83]
[2]
  Kd: 3.5 nM

## ACGAACUGCCCUCGAUCGACGCACAGACGUAAAAA (ssRNA, 2'-F C9,C10,C11,C20,C22; ribo G21; rest 2'-OMe; 3' idT) [T83 vrt4]
[5]; [7]
  Kd: 20 nM

B5: T82 vrt1 (ssRNA)
RNA: ACGAACUGCCCUCGAUCGACGCACAGACGUACCCG
modifications: 2'-F C2,U7,C9,C10,C11,U12,C20,C22,C28,U30; ribo A1,G3,G8,A19,G21,A23,G29; rest 2'-OMe; 3' idT
[4]; [7]
  Kd: 3.8 nM

## ACGAACUGCCCUCGAUCGACGCACAGACGUACACG (ssRNA, 2'-F C9,C10,C11,C20,C22; ribo G21; rest 2'-OMe; 3' idT) [T84 vrt4]
[5]; [7]
  Kd: 22 nM

## ACGAACUGCCCUCGAUCGACGCACAGACGUACACG (ssRNA, 2'-F C and U; 2'-OH A and G; 3' idT) [T84]
[4]; tags: factor VIII free
  Kd: 3.7 nM

## ACGAACUGCCCUCGAUCGACGCACAGACGU (ssRNA, mAmCmGmAmAmCfUmGfCfCfCmUmCmGmAmUmCmGmAfCmGfCmAmCmAmGmAmCmGfU-idT) [T59 vrt5]
[2]
  Kd: 260 nM
